41 sequences from the nanobody polyreactivity screen of Harvey et al. (2022) can be followed below.

A short description of this data set: yeast display, Sf9 membrane polyspecificity reagent, FACS + sequencing; frameworks hold sequencing errors. The procedure, abridged: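 Nanobodies from a synthetic yeast display library (Saccharomyces cerevisiae BJ5465), induced 36–48 hours with galactose, were stained 1 hour at 4 °C with 10% biotinylated, detergent-solubilized Sf9 membrane reagent, enriched on streptavidin microbeads, then FACS-sorted. Anti-HA (expression) and streptavidin (reagent binding) fluorescence set low and high (top ~1%) gates. Polyreactivity labels come from the gate of origin. Genes were colony-PCR amplified, MiSeq 2 × 250 sequenced and filtered by CDR length.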
As for “QVQLVESGGGLVQAGGSLRLSCAASGSTFYVNVMGWYRQAPGKERELVADISNDGSTHYADSVKGRFTISRDTAKNTVYLQMNSLKPEDTAVYYCNAEEIDEASYAYPPLEYDYWGQGTQVTVSS”, the “polyreactivity (PSR sort gate)” value is listed as “low polyreactivity”.

On to “QVQLVESGGGLVQAGGSLRLSCAASGSTFYVYAMGWYRQAPGKERELVAAITVRGGSTYYADSVKGRFTISRDNAKNTVYLQMNSLKPEDTAVYYCAVDVSKPYYEMDYWGQGTQVTVSS”, for which the “polyreactivity (PSR sort gate)” value was “high polyreactivity”.

Consider “QVQLVESGGGLVQAGGSLRLSCAASGSTFYVYDMGWYRQAPGKEREFVAVISWNGGSTYYADSVKGRFTISRDNAKNTVYLQMNSLKPEDTAVYYCATRRSSGRVTYDYWGQGTQVTVSS”, for which the “polyreactivity (PSR sort gate)” value is on record as “low polyreactivity”.

With “QVQLVESGGGLVQAGGSLRLSCAASGSTFYVYPMGWYRQAPGKERELVAAITRGGTTYYADSVKGRFTISRDNAKNTVYLQMNSLKPEDTAVYYCAKYLTGAADLVPEYDYWGQGTQVTVSS”, the “polyreactivity (PSR sort gate)” value was “low polyreactivity”.

In the case of “QVQLVESGGGLVQAGGSLRLSCAASGSTFYWYALGWYRQAPGKERELVASITWIGGSNTYYADSVKGRFTISRDNAKNTVYLQMNSLKPEDTAVYYCAADPGVYGQYLYSPWGYDYWGQGTQVTVSS”, the “polyreactivity (PSR sort gate)” value is “high polyreactivity”.

“QVQLVESGGGLVQAGGSLRLSCAASGSTFYWYAMGWYRQAPGKEREFVAAISLGSGSTYYADSVKGRFTISRDNAKNTVYLQMNSLKPEDTAVYYCARRYPYPAYEYGYWGQGTQVTVSS”: the “polyreactivity (PSR sort gate)” value is listed as “high polyreactivity”.

With “QVQLVESGGGLVQAGGSLRLSCAASGSTFYWYAMGWYRQATGKERELVAVITVRGGSTYYADSVKGRFTISRDNAKYTVYLQMNSLKPEDTAVYYCAAEQTSSLYKYWYDYWGQGTQVTVSS”, the “polyreactivity (PSR sort gate)” value is on record as “low polyreactivity”.

In the case of “QVQLVESGGGLVQAGGSLRLSCAASGSTFYYNAMGWYRQAPGKERELVAAINRGGITYYADSVKGRFTISRDNAKNTVYLQMNSLKPEDTAVYYCAASRYPRSYVSYYYWGQGTQVTVSS”, the “polyreactivity (PSR sort gate)” value is reported as “high polyreactivity”.

Take “QVQLVESGGGLVQAGGSLRLSCAASGSTFYYNAMGWYRQAPGKERELVAAISGSGGSTYYADSVKGRFTISRDNAKNTVYLQMNSLKPEDTAVDYCAALYGPGREYDYWGQGTQVTVSS”: the “polyreactivity (PSR sort gate)” value was “low polyreactivity”.

Turning to “QVQLVESGGGLVQAGGSLRLSCAASGSTFYYNAMGWYRQAPGKERELVAAITSSGGRTYYADSVKGRFTISRDNAKNTVYLQMNSLKPEDTAVYYCAKREASSRWPYDYWGQGTQVTVSS”, the “polyreactivity (PSR sort gate)” value was “low polyreactivity”.

For the sequence “QVQLVESGGGLVQAGGSLRLSCAASGSTFYYNAMGWYRQAPGKERELVAAITSSGGRTYYADSVKGRFTISRDNAMNTVYLQMNSLKPEDTAFYYCAKREASSRWPYDYWGQGTQVTVSS”, the “polyreactivity (PSR sort gate)” value is given as “low polyreactivity”.

“QVQLVESGGGLVQAGGSLRLSCAASGSTFYYNAMGWYRQAPGKERELVAVITLNGGRTSYADSVKGRFTISRDNAKITVYLQMNSLKPEDTAVYYCAADRYRGYGYWGQGTQVTVSS”: the “polyreactivity (PSR sort gate)” value is recorded as “low polyreactivity”.

Turning to “QVQLVESGGGLVQAGGSLRLSCAASGSTFYYNAMGWYRQAPGQERELVAAITSGGGTNYADSVKGRFTISRDNAKNTVYLQLNSLKPEDTAVYYCAADIYPLAIGAFRDDYWGQRTQVTVSS”, the “polyreactivity (PSR sort gate)” value is “low polyreactivity”.

For the sequence “QVQLVESGGGLVQAGGSLRLSCAASGSTFYYYAIGWYRQAPGKERELVAALSKSGGSTYYADSVKGRFTISRDNAKNTVYLQMNSLNTEDTAVYYCSARWYRFQGYGRPYRGIGGDYWGQGTQVTVSS”, the “polyreactivity (PSR sort gate)” value is given as “high polyreactivity”.

Regarding “QVQLVESGGGLVQAGGSLRLSCAASGSTFYYYALGWYRQAPGKERELVATISWSGDSTYADSVKGRFTISRDNAKNTVYLQMNSLKPEDTAVYYCATSGDWWGFRYDYWGQGTQVTVSS”, the “polyreactivity (PSR sort gate)” value is reported as “low polyreactivity”.

Consider “QVQLVESGGGLVQAGGSLRLSCAASGSTFYYYAMGWYRPAPGKERELVAAISSRGGSTFYADSVKGRFTISRDNAKNTVYLQMNSLKPEDTAVYYCNAYRYDRSQYYPYDYWGQGTQVTVSS”, for which the “polyreactivity (PSR sort gate)” value was “high polyreactivity”.

Take “QVQLVESGGGLVQAGGSLRLSCAASGSTFYYYAMGWYRQAPGKEREFVAAISWGGGSTRYADSVKGRFTISRDNAKNTVYLQMNSLKPEDTAVYYCAARYPHYDYYYWGQGTQVTVSS”: the “polyreactivity (PSR sort gate)” value is given as “high polyreactivity”.

As for “QVQLVESGGGLVQAGGSLRLSCAASGSTFYYYAMGWYRQAPGKERELVAAIDTSVDSTYYADSVKGRFTISRDNAKNTVYLQMNSLKPEDTAVYYCNARSRTGYTNRMYYWGQGTQVTVSS”, the “polyreactivity (PSR sort gate)” value was “high polyreactivity”.

“QVQLVESGGGLVQAGGSLRLSCAASGSTFYYYAMGWYRQAPGKERELVAAISISDNSTYYADSVKGRFTISRDNAKNTVYLQMNSLKPEDTAVYYCAAYGWYAHDDSTYDYWGQGTQVTVSS”: the “polyreactivity (PSR sort gate)” value is recorded as “low polyreactivity”.

With “QVQLVESGGGLVQAGGSLRLSCAASGSTFYYYAMGWYRQAPGKERELVAAISSGGSTYADSVKGRFTISRDNAKNTVYLQMNSLKPEDTAVYWGQGTQVTVSS”, the “polyreactivity (PSR sort gate)” value was “low polyreactivity”.

Consider “QVQLVESGGGLVQAGGSLRLSCAASGSTFYYYAMGWYRQAPGKERELVAAITYRGGSTYYADSVKGLFTISRDNAKNTVYLQMNSLKPEDTAVYYCSKVGYKTSSIRYGYWGQGTQVTVSS”, for which the “polyreactivity (PSR sort gate)” value was “high polyreactivity”.

For “QVQLVESGGGLVQAGGSLRLSCAASGSTFYYYAMGWYRQAPGKERELVAVISWGGGSTYYADSVKGRFTISRDNAKNTVYLQMNSLKPEDTAVYYCAAVYDEYQTSHEYDYWGQGTQVTVSS”, the “polyreactivity (PSR sort gate)” value is listed as “low polyreactivity”.

As to “QVQLVESGGGLVQAGGSLRLSCAASGSTFYYYTMGWYRQAPGKERELVAAISSSGGSTYYADSVKGRFTISRDNAKNTVYLQMNSLKPEDTAVYYCNAARKGYRVYTLIDRHKYDYWGQGTQVTVSS”, the “polyreactivity (PSR sort gate)” value is recorded as “high polyreactivity”.

With “QVQLVESGGGLVQAGGSLRLSCAASGSTFYYYTMGWYRQAPGKERELVASISGNVGSTSYADSVKGRFTISRDNAKNTVYLQMNSLKPEDTAVYYCNTDWGYYHSPDSDYWGQGTQVTVSS”, the “polyreactivity (PSR sort gate)” value is given as “low polyreactivity”.

In the case of “QVQLVESGGGLVQAGGSLRLSCAASGSTFYYYVMGWYRQAPGKERELVAAISSGGHTNYADSVKGRFTISRDNAKNTVYLQMNILKPEDTAVYYCAAKPWRGTLLRYGYWGQGTQVTVSS”, the “polyreactivity (PSR sort gate)” value is given as “high polyreactivity”.

With “QVQLVESGGGLVQAGGSLRLSCAASGSTGVNTMGWYRQAPGKERQLVAAIRATGGSTYYADSVKGRFTISRENAKNTVYFQMNSLKPEDTAVYYCNAYRRSYRWYGDLGEYWGQGTQVTVSS”, the “polyreactivity (PSR sort gate)” value is “high polyreactivity”.

As for “QVQLVESGGGLVQAGGSLRLSCAASGSTIAYYAMGWDRQAPGKERELVAVINGITGSTYYADSVKGRFTISRDNEKNTVYLQMNSLKPEDTAVYYCNADYADVTDEGDYWGQGTQVTVSS”, the “polyreactivity (PSR sort gate)” value is “low polyreactivity”.

As to “QVQLVESGGGLVQAGGSLRLSCAASGSTIDIYAMGWYRQAPGKERELVAAISNSGDTYYADSVKGRFTISRDNAKNTVYLQMNSLKPEDTAVYYCAAPAAGDEYDYWGQGTQVTVSS”, the “polyreactivity (PSR sort gate)” value is “high polyreactivity”.

For the sequence “QVQLVESGGGLVQAGGSLRLSCAASGSTIDTNAMGWYRQAPGTDRELVAAITSGGNTYADSVKGRFTISRDNAKNTVYLQMNSLKPEDTAVYYCAAEDVYTGWYDYCGQGTQVTVSS”, the “polyreactivity (PSR sort gate)” value was “low polyreactivity”.

As for “QVQLVESGGGLVQAGGSLRLSCAASGSTIDWYGMGWYRQAPGKERELVAAINFSDGSTYYADSVKGRFTISRDNAKNTVYLQMNSLKPEDTAVYYCAAFTPSYGGRDYWGQGTQVTVSS”, the “polyreactivity (PSR sort gate)” value is “low polyreactivity”.

“QVQLVESGGGLVQAGGSLRLSCAASGSTIDYYTMGWYRQEPGKERELVAAISWSGGNTYYADSVKGRFTISRDNAKNTVYLQMNSLKPEDTAVYYCNRVNAYWLRYDYWGQGTQVSVSS”: the “polyreactivity (PSR sort gate)” value is “high polyreactivity”.

With “QVQLVESGGGLVQAGGSLRLSCAASGSTIEFNAMGWYRPAPGKERELVAAISGSGASTYYADSVKGRFTISRDNAKNTVYLQMNSLTPEVTAVYYCNADSLYYDYQTVDVQALDYWGQATQVTVSS”, the “polyreactivity (PSR sort gate)” value was “low polyreactivity”.

For “QVQLVESGGGLVQAGGSLRLSCAASGSTIEPNAMGWYRPAPGKERELVAAINYSGGRTYYADSVKGRFTISRDNAKNTVYLQMNSLKPEDTAVYYCAATSIGRYKSRLDYWGQGTQVTVSS”, the “polyreactivity (PSR sort gate)” value is recorded as “high polyreactivity”.

Turning to “QVQLVESGGGLVQAGGSLRLSCAASGSTIGDNAMGWYRQAPGKERELVASITGGGGSTYYADSVKGRFTISRDNAKNTVYLQMNSLKPEDTAVYYCAAVYQSYTYYLPKYWSFYQNDYWGQGTQVTVSS”, the “polyreactivity (PSR sort gate)” value is given as “low polyreactivity”.

Turning to “QVQLVESGGGLVQAGGSLRLSCAASGSTIGFYAMGWYRQAPGKERELVAVISSSSSTNYADSVKGRFTISRDNAKNTVYLQMNSLKPKIPAVYYCNAKWTTLFDYWGQGTQVTVSS”, the “polyreactivity (PSR sort gate)” value is listed as “high polyreactivity”.

As to “QVQLVESGGGLVQAGGSLRLSCAASGSTIGLNAMGWYIQEPGKEREFVAAISVSSGNKYYADSVKGRFTISRDNAKNTVYLQMNSLKPEDTAVYYCAARPRSHYIAQYYYWGQGTHVTVSS”, the “polyreactivity (PSR sort gate)” value is “low polyreactivity”.

Consider “QVQLVESGGGLVQAGGSLRLSCAASGSTIGPNAMGSYRQAPGKERELVAAIRSNGGRTYYADSVKGRFTISRDNAKNTVYLQMNSLKPEDTAVYYCAAPHYPYDTPYGYWGQGTQVTVSS”, for which the “polyreactivity (PSR sort gate)” value is on record as “low polyreactivity”.

Take “QVQLVESGGGLVQAGGSLRLSCAASGSTIGVYAMGWYRQAPGKERELVAAITSGDSTNYADSVKGRFTISRDNAKNTVYLQMYSLKPEDTAVYYCNARQLYYWYYAYDYWGQGTQVTVST”: the “polyreactivity (PSR sort gate)” value is “low polyreactivity”.

In the case of “QVQLVESGGGLVQAGGSLRLSCAASGSTIIGYTMGWYRQAPGKERELVADISNGGSTNYADSVKGRFTISRDNAKNTVYLQLNSLKPEDTAVYYCNAEAWYYWGWPFFIATYDYWGQGTQVTVSS”, the “polyreactivity (PSR sort gate)” value is “low polyreactivity”.

With “QVQLVESGGGLVQAGGSLRLSCAASGSTIKPYTMGWYRPAPGKERELVAAITSGGRTYYADSVKGRFTISRDNAKNTVYLQMNSLKPEDTAVYYCNARRYLWLRRYDYWGQGTQVTVSS”, the “polyreactivity (PSR sort gate)” value was “high polyreactivity”.

In the case of “QVQLVESGGGLVQAGGSLRLSCAASGSTIKYYAMGWYRQAPGKERELVAAINWSGDSTYYADSVKGRFTISRDNAKNTVYLQMNSLKPEDTAVYYCAVRYQKRAYYGSNYWGQGTQVTVSS”, the “polyreactivity (PSR sort gate)” value was “high polyreactivity”.
